The record followed here is patent US20220226442A1.

This assay deals with IL-2 receptors on the cell surface of human PBMC populations (Tregs, CD25^high T helper cells, NK cells, cytotoxic T cells). The experiment in a line: cell-based or functional assay.

Take “IL-2-Fc fusion protein F42K/V69A/Q74P, (G4S)4 linker, IgG1 Fc N297G”: the Ratio (CD25^high T helper EC50 / Treg EC50) worked out at 15.9.
Take “IL-2-Fc fusion protein R38N/V69A/Q74P, (G4S)4 linker, IgG1 Fc N297G”: the Ratio (CD25^high T helper EC50 / Treg EC50) was 2820.
On the same count and under the same terms, under “IL-2-Fc fusion protein F42Q/V69A/Q74P, (G4S)4 linker, IgG1 Fc N297G” stands 25.9.
Same read-out and setting: under “IL-2-Fc fusion protein R38E/V69A/Q74P, (G4S)4 linker, IgG1 Fc N297G” stands 9.
“irrelevant (non-binding) antibody with IL-2 N88D fused to its C-terminus” gave a pSTAT5 EC50, Treg of 0.37 nM and a pSTAT5 Max. Signal, Treg (relative to V69A/Q74P IL-2-Fc) of 0.5.
Consider “IL-2-Fc fusion protein R38Q/V69A/Q74P, (G4S)4 linker, IgG1 Fc N297G”, for which the Ratio (CD25^high T helper EC50 / Treg EC50) turned out to be 28.4.
On the same count and under the same terms, in the case of “IL-2-Fc fusion protein K35E/V69A/Q74P, (G4S)4 linker, IgG1 Fc N297G” it was 300.
